These results are taken from US20100226974A1 (MITSUBISHI PHARMA, published 2010).

This test addresses T1, human non-muscular myosin heavy chain type A (human, UniProt P35579 2-1960).
T1 construct: also called nmMHCA; human non-muscular myosin A chain
The test can be described thus: flow cytometry, FITC-labeled antibody at 20 ug/ml on intact MKN45 cells, mean channel number of FL1. As for the experimental part:
Cultured cells of MKN45 or cells of a solid tumor (hereinafter referred to as “tumor cells”) formed by subcutaneous transplantation of MKN45 were allowed to react with the GAH antibody described in EP-A-520499 and EP-A-1174126, which had been labeled with fluorescein isothiocyanate (FITC: Sigma), in a concentration of 20 μg/ml at 4° C. for 1 hour, and then washed once with phosphate buffered saline (PBS). Analysis was carried out in PBS containing propidium iodide (PI: Sigma) using a flow cytometer (FACScan: Becton Dickinson). PI-positive cells, namely dead cells, were excluded from the subject of analysis by gating operation. By calculating the mean channel number of FL1 as an index of FITC fluorescence intensity, comparison of the cultured cells and tumor cells of MKN45 was carried out.
For orientation: In flow cytometry, cells or beads pass a laser one at a time.

T1 sequence (P35579 2-1960 limits assumed): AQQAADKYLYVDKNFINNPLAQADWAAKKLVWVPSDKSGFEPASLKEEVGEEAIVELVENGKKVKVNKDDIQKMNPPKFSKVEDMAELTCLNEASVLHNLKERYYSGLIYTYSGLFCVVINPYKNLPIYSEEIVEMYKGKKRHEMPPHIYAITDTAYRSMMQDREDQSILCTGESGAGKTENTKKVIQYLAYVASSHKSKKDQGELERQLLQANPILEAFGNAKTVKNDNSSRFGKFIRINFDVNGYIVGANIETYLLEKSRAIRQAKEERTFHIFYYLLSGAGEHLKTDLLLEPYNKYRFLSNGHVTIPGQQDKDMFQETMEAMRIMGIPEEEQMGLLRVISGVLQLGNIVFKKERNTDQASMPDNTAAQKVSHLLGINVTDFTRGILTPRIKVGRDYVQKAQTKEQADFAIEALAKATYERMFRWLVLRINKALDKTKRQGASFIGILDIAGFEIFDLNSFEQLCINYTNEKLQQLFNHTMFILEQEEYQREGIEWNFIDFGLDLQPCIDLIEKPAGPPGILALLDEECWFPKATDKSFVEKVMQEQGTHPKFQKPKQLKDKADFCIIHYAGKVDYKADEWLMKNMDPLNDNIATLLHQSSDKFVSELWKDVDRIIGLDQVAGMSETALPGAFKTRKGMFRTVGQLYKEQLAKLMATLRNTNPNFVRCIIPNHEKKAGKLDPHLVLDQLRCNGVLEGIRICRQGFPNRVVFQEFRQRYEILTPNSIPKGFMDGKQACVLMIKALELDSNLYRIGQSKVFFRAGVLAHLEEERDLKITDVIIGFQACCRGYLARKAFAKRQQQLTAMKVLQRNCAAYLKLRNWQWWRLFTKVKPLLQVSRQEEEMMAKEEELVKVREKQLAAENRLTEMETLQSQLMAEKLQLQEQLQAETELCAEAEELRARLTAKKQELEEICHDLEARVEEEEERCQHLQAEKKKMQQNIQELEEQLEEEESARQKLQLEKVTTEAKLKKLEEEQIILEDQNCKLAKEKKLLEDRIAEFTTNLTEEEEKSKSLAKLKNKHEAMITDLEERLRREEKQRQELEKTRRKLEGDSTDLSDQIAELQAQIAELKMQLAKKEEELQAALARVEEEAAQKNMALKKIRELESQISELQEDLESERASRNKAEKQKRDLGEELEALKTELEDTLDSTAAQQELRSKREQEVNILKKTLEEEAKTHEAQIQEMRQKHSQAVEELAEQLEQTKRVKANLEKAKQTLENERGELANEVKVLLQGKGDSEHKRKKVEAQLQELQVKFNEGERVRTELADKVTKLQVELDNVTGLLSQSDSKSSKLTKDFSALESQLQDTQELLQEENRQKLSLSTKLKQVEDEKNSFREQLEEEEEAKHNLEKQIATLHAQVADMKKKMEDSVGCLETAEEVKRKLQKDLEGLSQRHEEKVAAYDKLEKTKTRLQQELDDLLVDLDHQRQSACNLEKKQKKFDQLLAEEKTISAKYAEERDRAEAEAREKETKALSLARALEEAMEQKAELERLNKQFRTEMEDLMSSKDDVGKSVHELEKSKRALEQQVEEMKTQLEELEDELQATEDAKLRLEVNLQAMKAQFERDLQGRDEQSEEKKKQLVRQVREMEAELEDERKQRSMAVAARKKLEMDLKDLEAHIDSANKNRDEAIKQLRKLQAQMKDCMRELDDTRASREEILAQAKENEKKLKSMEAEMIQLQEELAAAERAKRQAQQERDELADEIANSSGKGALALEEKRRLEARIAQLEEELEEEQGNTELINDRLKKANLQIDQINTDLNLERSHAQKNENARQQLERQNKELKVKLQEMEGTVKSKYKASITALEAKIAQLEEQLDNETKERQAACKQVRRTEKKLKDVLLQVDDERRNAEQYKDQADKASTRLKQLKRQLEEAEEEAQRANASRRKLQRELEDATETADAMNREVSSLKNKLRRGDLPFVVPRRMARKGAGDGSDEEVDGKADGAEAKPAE

B1: GAH antibody (human monoclonal antibody disclosed in EP-A-520499) (antibody, V domains shown)
VH: QVQLQESGPGLVKPSQTLSLTCTVSGGSISSCGFYWNWIRQHPGKGLEWIGYIYYSGSTYYNPSLKSRVTISLDTSKSQFSLKLSSLTAADTAVYYCARSTRLRGADYWGQGTMVTVSS
VL: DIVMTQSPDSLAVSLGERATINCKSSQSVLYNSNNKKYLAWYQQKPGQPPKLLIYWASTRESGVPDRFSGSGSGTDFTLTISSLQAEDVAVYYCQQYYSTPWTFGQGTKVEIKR
Regarding B1, the “fold reactivity, tumor cells against cultured cells of MKN45” value was approximately 18 times.
